# Data published in article PMC5457915, “Real-time analysis of the binding of fluorescent VEGF165a to VEGFR2 in living cells: Effect of receptor tyrosine kinase inhibitors and fate of internalized agonist-receptor complexes” (Biochemical Pharmacology, 2017).
# “And” between values parts separate entries of the source, which are not always exact repeats. Identical values can stand only once. “Also recorded” adds a separate entry of the source.
# B1: VEGF189a (recombinant human, R&D Systems) (ligand)
# chain: APMAEGGGQNHHEVVKFMDVYQRSYCHPIETLVDIFQEYPDEIEYIFKPSCVPLMRCGGCCNDEGLECVPTEESNITMQIMRIKPHQGQHIGEMSFLQHNKCECRPKKDRARQEKKSVRGKGKGQKRKRKKSRYKSWSVPCGPCSERRKHLFVQDPQTCKCSCKNTDSRCKARQLELNERTCRCDKPRR
# B2: VEGF145a (recombinant human, R&D Systems) (ligand)
# chain: APMAEGGGQNHHEVVKFMDVYQRSYCHPIETLVDIFQEYPDEIEYIFKPSCVPLMRCGGCCNDEGLECVPTEESNITMQIMRIKPHQGQHIGEMSFLQHNKCECRPKKDRARQEKKSVRGKGKGQKRKRKKSRYKSWSVCDKPRR
# B3: VEGF121a (recombinant human, R&D Systems) (ligand)
# chain: APMAEGGGQNHHEVVKFMDVYQRSYCHPIETLVDIFQEYPDEIEYIFKPSCVPLMRCGGCCNDEGLECVPTEESNITMQIMRIKPHQGQHIGEMSFLQHNKCECRPKKDRARQEKCDKPRR
# B4: VEGF165b (recombinant human, R&D Systems) (ligand)
# chain: APMAEGGGQNHHEVVKFMDVYQRSYCHPIETLVDIFQEYPDEIEYIFKPSCVPLMRCGGCCNDEGLECVPTEESNITMQIMRIKPHQGQHIGEMSFLQHNKCECRPKKDRARQENPCGPCSERRKHLFVQDPQTCKCSCKNTDSRCKARQLELNERTCRSLTRKD
# Tests used:
# NLuc-VEGFR2 = target: T1, NLuc-VEGFR2 (Homo sapiens, UniProt P35968); assay: NanoBRET ligand binding (saturation/competition) in living HEK293T NLuc-VEGFR2 cells; conditions: maximal response relative to binding of VEGF165a-TMR alone; RTKI 30 min pre-treatment, 60 min ligand
# T1 construct: full length VEGFR2, tagged with the bioluminescent protein NanoLuc; IL-6 signal peptide (N); expressed in transfected cells
# Experimental: On the day of the assay, medium was replaced with 50 μl per well HBSS/0.1% protease free BSA. Where appropriate, RTKIs were added 30 min prior to agonist. For competition experiments, a fixed concentration of fluorescent VEGF165a-TMR was added simultaneously with competing unlabeled VEGF isoforms to triplicate wells for the time specified (10, 30 or 60 min) and plates co-incubated at 37 °C in the dark. For saturation experiments a range of concentrations of VEGF165a-TMR were added in the presence or absence of a competing concentration (30 nM) of unlabeled VEGF165a and incubated for 60 min at 37 °C in the dark. The NanoLuc substrate furimazine (N1130; Promega Corporation, USA) was then added at a final concentration of 10 μM. […] For all experiments, sequential recordings were performed at room temperature using a PHERAstar FS plate reader (BMG Labtech, Germany) using 460 nm (80 nm bandpass; donor NanoLuc emission) and >610 nm longpass filters (acceptor emission). Raw BRET ratios were calculated from the ratio of acceptor to donor emission values. For real-time ligand association kinetics experiments, cells were incubated with vehicle for 30 min at 37 °C. Furimazine (10 μM) was then added and plates equilibrated at 37 °C in the PHERAstar FS plate reader for 5 min.
# Equilibrium binding: All data were analysed using Prism 6 (GraphPad; San Diego, CA, USA). NanoBRET competition experiments were fitted as raw BRET ratios using non-linear least squares regression (variable slope) with no constraints used. Saturation curves were fitted simultaneously for total (VEGF165a-TMR alone) and non-specific binding (top concentration of competing VEGF165a alone) using both one and two site fits. Background and non-specific binding parameters were shared across all data sets.
# Binding affinities (Ki) of the unlabeled ligands were calculated using the Cheng-Prusoff equation: Ki=IC50/1+[L]/KD where [L] is the concentration of fluorescent ligand used (nM). KD values (nM) were derived from saturation binding curves. […]
# VEGFR2 = VEGFR2 (Homo sapiens, UniProt P35968); assay: Confocal / structured illumination microscopy of VEGF165a-TMR and VEGFR2 location after RTKI pre-treatment; format: cell-based; set-up: full length VEGFR2, tagged with the bioluminescent protein NanoLuc; IL-6 signal peptide (N); expressed in transfected cells; conditions: RTKI 30 min pre-incubation, then 10 nM VEGF165a-TMR 30 min
# Experimental: On the day of the assay, cells were washed three times with HBSS/0.1% protease free BSA (vehicle). Receptor tyrosine kinase inhibitors were added at this point as aliquots to the appropriate wells and cells incubated for 30 min at 37 °C. Cells were then stimulated with 10 nM VEGF165a-TMR for 30 min at 37 °C in the dark.
# All cells were then fixed using 3% PFA/PBS (10 min at room temperature), washed with PBS and mounted onto slides using Prolong Gold antifade reagent (P10144; Thermo Fisher Scientific, USA). TetraSpeck™ microspheres (0.1 μm; T7279, Thermo Fisher Scientific, USA) were included in each experiment to allow X/Y/Z channel alignment correction in image processing. […] Images were manually processed with consistent raw scaling between and within experiments.
# [1] = target: NLuc-VEGFR2 (full length human VEGFR2 with NanoLuc on its N-terminus) (human) (UniProt P35968); assay: FRET or BRET; NanoBRET saturation on living HEK293T NLuc-VEGFR2 cells, 30 min pre-incubation with 1 μM cediranib (Fig. 6b)
# [2] = target: NLuc-VEGFR2 (full length human VEGFR2 with NanoLuc on its N-terminus) (human) (UniProt P35968); assay: FRET or BRET; NanoBRET saturation on living HEK293T NLuc-VEGFR2 cells, without cediranib (Fig. 6b)
# [3] = target: NLuc-VEGFR2 (full length human VEGFR2 with NanoLuc on its N-terminus) (human) (UniProt P35968); assay: FRET or BRET; NanoBRET saturation on living HEK293T NLuc-VEGFR2 cells; VEGF165a-TMR 0.1-3 nM with or without 30 nM unlabeled VEGF165a (non-specific binding), 60 min at 37 °C, HBSS/0.1% BSA; one site fit; apparent
# [4] = target: VEGF165a-TMR (fluorescent VEGF165a labeled with 6-TMR-PEG-CBT on a single N-terminal cysteine of each protomer) (human); assay: fluorescence correlation spectroscopy; solution FCS of VEGF165a-TMR (0.25-10 nM) in HBSS with 0.1% protease-free BSA; also without BSA and with 10 mM DTT (30 min at 37 °C); number of fluorescent particles against the concentration calculated for a dimer
# [5] = target: VEGF165a-TMR (fluorescent VEGF165a labeled with 6-TMR-PEG-CBT on a single N-terminal cysteine of each protomer) (human); assay: SDS-PAGE with and without DTT, fluorescence scan; purified VEGF165a-TMR in the presence or absence of 100 mM DTT, scanned on a Typhoon 9400 (Ex 532 nm, Em 580 nm)
# [6] = target: NLuc-VEGFR2 (full length human VEGFR2 with NanoLuc on its N-terminus) (human) (UniProt P35968); assay: FRET or BRET; NanoBRET competition on living HEK293T NLuc-VEGFR2 cells; fixed VEGF165a-TMR (0.1-3 nM) added simultaneously with increasing unlabeled VEGF isoform, 60 min at 37 °C, HBSS/0.1% BSA; IC50 (molar) converted to pKi by Cheng-Prusoff; also linear regression of IC50 against [VEGF165a-TMR]; apparent
# [7] = target: NLuc-VEGFR2 (full length human VEGFR2 with NanoLuc on its N-terminus) (human) (UniProt P35968); assay: FRET or BRET; NanoBRET real-time association kinetics on living HEK293T NLuc-VEGFR2 cells; VEGF165a-TMR 1-20 nM, read every 30 s for 16 min at 37 °C; kobs against concentration, linear only at the three lowest concentrations
# [8] = target: NLuc-VEGFR2 (full length human VEGFR2 with NanoLuc on its N-terminus) (human) (UniProt P35968); assay: FRET or BRET; NanoBRET competition on living HEK293T NLuc-VEGFR2 cells; vehicle 30 min at 37 °C, then VEGF165a-TMR (0.5-3 nM) with unlabeled VEGF165a for 10 min at 37 °C
# [9] = target: NLuc-VEGFR2 (full length human VEGFR2 with NanoLuc on its N-terminus) (human) (UniProt P35968); assay: FRET or BRET; NanoBRET competition on living HEK293T NLuc-VEGFR2 cells; 1 μM cediranib 30 min at 37 °C, then VEGF165a-TMR (0.5-3 nM) with unlabeled VEGF165a for 30 min at 37 °C
# [10] = target: NLuc-VEGFR2 (full length human VEGFR2 with NanoLuc on its N-terminus) (human) (UniProt P35968); assay: FRET or BRET; NanoBRET competition on living HEK293T NLuc-VEGFR2 cells; 1 μM cediranib 30 min at 37 °C, then VEGF165a-TMR (0.5-3 nM) with unlabeled VEGF165a for 10 min at 37 °C
# [11] = target: NLuc-VEGFR2 (full length human VEGFR2 with NanoLuc on its N-terminus) (human) (UniProt P35968); assay: FRET or BRET; NanoBRET competition on living HEK293T NLuc-VEGFR2 cells; vehicle 30 min at 37 °C, then VEGF165a-TMR (0.5-3 nM) with unlabeled VEGF165a for 60 min at 37 °C
# [12] = target: NLuc-VEGFR2 (full length human VEGFR2 with NanoLuc on its N-terminus) (human) (UniProt P35968); assay: FRET or BRET; NanoBRET competition on living HEK293T NLuc-VEGFR2 cells; vehicle 30 min at 37 °C, then VEGF165a-TMR (0.5-3 nM) with unlabeled VEGF165a for 30 min at 37 °C
# [13] = target: NLuc-VEGFR2 (full length human VEGFR2 with NanoLuc on its N-terminus) (human) (UniProt P35968); assay: FRET or BRET; NanoBRET competition on living HEK293T NLuc-VEGFR2 cells; 1 μM cediranib 30 min at 37 °C, then VEGF165a-TMR (0.5-3 nM) with unlabeled VEGF165a for 60 min at 37 °C
# [14] = target: T2, NLuc-VEGFR2 (full length human VEGFR2 with NanoLuc on its N-terminus) (human, UniProt P35968-1 20-1356); assay: FRET or BRET; NanoBRET competition on living HEK293T NLuc-VEGFR2 cells; fixed VEGF165a-TMR (0.1-3 nM) added simultaneously with increasing unlabeled VEGF isoform, 60 min at 37 °C, HBSS/0.1% BSA; IC50 (molar) converted to pKi by Cheng-Prusoff; also linear regression of IC50 against [VEGF165a-TMR]; apparent; conditions: one partner purified
# T2 construct: VEGFR2, human, subcloned from an Origene plasmid (NM_002253); called full length VEGFR2; Open reading frame: IL-6 signal peptide, NanoLuc, Gly-Ser-Ser-Gly(AIA) linker, VEGFR2 (vector pF-sNnK CMV/neo); also called NanoLuc VEGFR2; NanoLuc-tagged VEGFR2; not shown: NanoLuc, N-terminal, kept
# T2 sequence (P35968 20-1356): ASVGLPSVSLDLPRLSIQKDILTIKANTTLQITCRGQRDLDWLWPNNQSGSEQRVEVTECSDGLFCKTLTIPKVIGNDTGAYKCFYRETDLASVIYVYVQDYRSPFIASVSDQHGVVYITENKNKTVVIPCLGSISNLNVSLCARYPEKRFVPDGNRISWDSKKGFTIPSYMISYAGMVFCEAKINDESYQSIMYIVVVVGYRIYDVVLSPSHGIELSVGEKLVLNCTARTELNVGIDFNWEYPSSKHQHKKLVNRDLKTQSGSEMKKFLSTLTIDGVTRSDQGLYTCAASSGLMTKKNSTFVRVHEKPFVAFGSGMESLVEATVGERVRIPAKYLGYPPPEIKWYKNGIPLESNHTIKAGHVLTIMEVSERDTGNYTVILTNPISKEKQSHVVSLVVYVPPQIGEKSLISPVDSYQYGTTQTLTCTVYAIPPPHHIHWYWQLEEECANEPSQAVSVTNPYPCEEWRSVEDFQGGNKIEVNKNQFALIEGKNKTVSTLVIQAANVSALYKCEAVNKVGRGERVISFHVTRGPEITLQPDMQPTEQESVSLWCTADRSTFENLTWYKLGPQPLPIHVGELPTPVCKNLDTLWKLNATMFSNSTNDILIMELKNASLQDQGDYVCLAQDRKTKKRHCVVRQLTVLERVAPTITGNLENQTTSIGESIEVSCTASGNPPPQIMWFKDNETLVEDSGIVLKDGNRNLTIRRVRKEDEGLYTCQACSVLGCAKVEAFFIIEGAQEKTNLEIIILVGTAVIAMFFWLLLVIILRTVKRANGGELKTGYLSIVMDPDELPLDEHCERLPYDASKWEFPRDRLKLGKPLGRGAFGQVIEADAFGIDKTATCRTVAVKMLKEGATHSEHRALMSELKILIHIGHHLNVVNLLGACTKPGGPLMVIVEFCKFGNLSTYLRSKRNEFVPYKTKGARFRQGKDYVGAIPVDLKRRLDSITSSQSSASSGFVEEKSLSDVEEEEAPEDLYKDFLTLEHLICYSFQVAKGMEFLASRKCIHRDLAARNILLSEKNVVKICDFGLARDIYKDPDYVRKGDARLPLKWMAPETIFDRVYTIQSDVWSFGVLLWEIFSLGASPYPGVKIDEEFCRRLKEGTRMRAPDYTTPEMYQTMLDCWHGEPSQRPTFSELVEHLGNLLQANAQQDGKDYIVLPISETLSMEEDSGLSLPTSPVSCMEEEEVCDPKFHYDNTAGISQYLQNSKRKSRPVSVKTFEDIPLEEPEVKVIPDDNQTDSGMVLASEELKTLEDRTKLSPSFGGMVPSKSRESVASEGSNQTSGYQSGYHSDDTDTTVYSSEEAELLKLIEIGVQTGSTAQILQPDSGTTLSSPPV
# Chain of NLuc-VEGFR2 (full length human VEGFR2 with NanoLuc on its N-terminus) (human) (P35968 20-1356): as above
# Chain of VEGFR2 (P35968 20-1356): as above
# T1 sequence (P35968 20-1356): as above
molecule,measurement,setting,value
Cc1ccc(Nc2nccc(N(C)c3ccc4c(C)n(C)nc4c3)n2)cc1S(N)(=O)=O [Pazopanib],NanoBRET % Increase in binding of 10 nM VEGF165a-TMR,NLuc-VEGFR2,144.8 ± 3.5 (4) %
same,effect on VEGFR2 internalization by VEGF165a-TMR / cellular location of VEGF165a-TMR,VEGFR2,prevented
COc1cc2c(Nc3ccc(Br)cc3F)ncnc2cc1OCC1CCN(C)CC1 [Vandetanib],NanoBRET % Increase in binding of 10 nM VEGF165a-TMR,NLuc-VEGFR2,152.8 ± 7.1 (4) %
same,effect on VEGFR2 internalization by VEGF165a-TMR / cellular location of VEGF165a-TMR,VEGFR2,prevented
COc1cc2c(Oc3ccc4[nH]c(C)cc4c3F)ncnc2cc1OCCCN1CCCC1 [Cediranib],NanoBRET % Increase in binding of 10 nM VEGF165a-TMR,NLuc-VEGFR2,139.0 ± 4.4% and 139.0 ± 2.0 (4) %
same,effect on VEGFR2 internalization by VEGF165a-TMR / cellular location of VEGF165a-TMR,VEGFR2,prevented; also recorded: largely localised to the cell membrane
VEGF165a-TMR (fluorescent VEGF165a labeled with 6-TMR-PEG-CBT on a single N-terminal cysteine of each protomer) (ligand),Kd,[1],1.18 nM
same,Kd,[2],1.14 nM
same,Kd,[3],0.92 nM
same,stoichiometry N,[4],2
same,stoichiometry N,[5],2
same,Kd,[6],0.85 nM
same,Kd,[7],2.27 nM
same,koff,[7],0.00183 s⁻¹
same,kon,[7],797000 M⁻¹ s⁻¹
"VEGF165a (recombinant human, R&D Systems) (ligand)",pKi,[8],8.93
same,pKi,[9],9.23
same,pKi,[10],9.17
same,pKi,[11],9.28
same,pKi,[12],8.99
same,pKi,[13],9.18
same,Ki,[6],0.22 nM
same,pKi,[6],9.81
B1,pKi,[14],8.99
B2,pKi,[14],8.74
B3,pKi,[14],9.47
B4,pKi,[14],9.41
